Reference: the DeepSol protein solubility set

Test: soluble on expression in E. coli; label from the status in PepcDB or PDB records

Sequence | soluble on expression in E. coli
MGSDKIHHHHHHMAHAHQKSDPHTVDFQVDPVVLELGQRFVDAGYELSLVGGPVRDLFLGRRSPDLDFTTDATPDQTLALIRKWADNFWEIGKAFGTIGMRKSGFQIEITTYRAEAYDPESRKPMVAFGSSLTDDLLRRDFTINAMALRLPSMELIDPFGGVRDLHASVLATPGAPETSFSDDPLRMMRAARFAAQLGVAVRGDVKHAMSQMAERISIISAERVREELVKLICGAHPRVGIDLLVDTGLAEFVLPEVSALRLEADEHHRHKDVYQHSLQVLEQAASLETDSDGAVPGPDFVLRFAALMHDVGKPATRRFEPGGAVSFRHHDMVGSKLTKKRMKALRFDNDTIKAVARLVELHMRFYGYGEAGWSDSAVRRYVTDAGPLLERLHRLTRSDVTTRNQRKADRLSFAYDDLEARIAALREQESLEAVRPDLDGGQIMALLGLKPGPVVGKAYKFLLEQRMEHGPLDPVVAEARLREWWADQPEAAEHQPAAGVELSTTEES | not soluble
GQLQEPYETVTIDVEEQHQGPIMEKMGVRKAELTDMAPDGTGRIRMDFIMPSRGLIGFQTEFMTLTSGSGLIYHTFFEYGPHKGGEIGQRKNGVMIGNATGKALTNAIFNLQSRGRMLIGHGVDIYEG | not soluble
MAHHHHHHMTRDDGTQVAQLLSEGKYNLPMFLRYLKASSMEGDQPDKSLLLGILLQSLARFQTSDFTACMCLVPSHVQDSPSVEKELNYIYGLENLLSCGLFARFWTQWSSVKEHLPESFHFEARVRTSILETICITMESIPTEKLATYLAVSPDQVQKVVHNAMKDSEDRDMKVMAYDSGSVVFHRNRFNYPQAGAAQDAIRFTDVSSVIHNDVPRRGAAVAADETRDVRARTWARMADE | soluble
MSGGPVKTPFLSFIIPAYNEEQRLPSYLERVIGFFAGQSYSFEIVVVDDGSSDGTAALVKALMAQHSCLRLEALDRNRGKGFAVKTGMSAAKGQLRVFADADGATPVEEIRRLLDAREQGADIAIGSRAMRSDECIVQGRVHRKIMGTVFNGLIRALAVRGIHDSQCGFKLFTASAAEDIFPRQRITGFGFDVELLFLARRLGYVVVEVPVNWSDVEGTKVRLVRDSFRMLGEVLRIRFTNLTGGYGDIPGKTLEHHHHHH | not soluble
MSLTRICIVGAGAVGGYLGARLALAGEAVNVLARGATLQALQTAGLRLTEDGATHTLPVRATHDAVALGEQDVVIVAVKAPALESVAAAIAPLIGPGTCVVVAMNGVPWWFFDRPGPLQGQRLQAVDPHGRIAQAIPTRHVLGCVVHLTSATASPGHIRHGNGRRLILGEPAGGASPRLASIAALFGRAGLQAECSEAIQRDIWFKLWGNMTMNPVSVLTGATCDRILDDPLVSAFCLAVMAEAKAIGARIGCPIEQSGEARSAVTRQLGAFKTSMLQDAEAGRGPLEIDALVASVREIGRHVGVPTPQIDTLLGLVRLHAQTRGLYEGHHHHHH | soluble
GSSHHHHHHSSGLVPRGSHMQTTNAVDLGNPDLYTTLERHARWRELAAEDAMVWSDPGSSPSGFWSVFSHRACAAVLAPSAPLTSEYGMMIGFDRDHPDNSGGRMMVVSEHEQHRKLRKLVGPLLSRAAARKLAERVRIEVGDVLGRVLDGEVCDAATAIGPRIPAAVVCEILGVPAEDEDMLIDLTNHAFGGEDELFDGMTPRQAHTEILVYFDELITARRKEPGDDLVSTLVTDDDLTIDDVLLNCDNVLIGGNETTRHAITGAVHALATVPGLLTALRDGSADVDTVVEEVLRWTSPAMHVLRVTTADVTINGRDLPSGTPVVAWLPAANRDPAEFDDPDTFLPGRKPNRHITFGHGMHHCLGSALARIELSVVLRVLAERVSRVDLEREPAWLRAIVVQGYRELPVRFTGR | soluble
MITLGFMSLSRQHEADYSAELAKRAPEFGIRFIRFTPFDISPDTLRVKASVYHSASSTWNETEMAIPDYIYDRCFYGKDSHSQKAKPIVEWLKKYPKTEFIGRGLPDKWTVLHDLQQHSVINPYIPETIKVSRYEQIHSFLSKEKACILKPAFGAGGRGVILLKLGKKNITATYHIGKDKQTKTFSNQTSFKTWCKKVLQHQYLLQPYLNIQDKEQYPCDIRLFMEKNEAGEWNTVGKAVRRGYKHGLLANLSGGSDALTFDSWFEDIPKKQQVVLLDDVFSITQSVPYYLDERYGPLFELGLDICLAKDGRIWILDINSKPGRKSILRVSPEQKEQLYTCPLKRCQYLFSEQSQKGVLPRES | not soluble
MIPNFRGFNKKTKKMYSIDGFKSSERKIYRCSLADDEFRSGRLETFHFVEDNLVEKCNRPPERFYRQKQVRKSDRRLMARQ | not soluble
MPNHQPVKKFKIIGGACKGLGLNLPNISSTRPTKAIVRESFFNTLQAEINGAHFIEVFSGSASMGLEALSRGAKSAVFFEQNKSAYKTLLENISLFKNRLKKEMEIQTFLDDAFKLLPTLCLKNGVLNIIYLDPPFETSGFLGIYEKCFQALERLLKRFNPKNLLVVFEHESMHEMPKSLVTLAIIKQKKFGKTTLTYFQLEHHHHHH | soluble
MKKWAVWLCSLLLLLPLSACTNDGGQSEKPLKKVRLAEVTHSIFYAPQYVALAKGFFKEEGLDVELTTTWGGDKTMTTLLSGGADIALVGSETSIYVYSQGTDDPVINFAQLTQTDGTFLVSRKKIGHFTWEMLKGSTFLGQRKGGMPQMVGEFVLKKHGIDPHQDLKLIQNVDFANIANAFASGTGDFVQLFEPTASLFEQEGKGYIVASFGTESGRVPYTSYMAKRSYMNENKDVIEKFTRAIYKAQQWVESHSAAEIAKAIQPYFKDTDSAIIEKVVERYKSQGTYATDPILDEEEWNNLQTIMAEAGELPKRIDLNTLVDSSFAKNAMND | not soluble
MTPEALSFWTQADKPFLFLAACIELTNALAYGPGYVCGLPCSWDGSCSGAQHLCAATRSEDAWKVNLIGNDEVHDLYTIVGNAAKQSMARDTDPMVSTILAYEGDWRKVFKRNTMTTFYGSKGFGMAQQHMDDLMEPLSREVMQKKRAKHPFGQTRKEHHAASRLLAAHAAAAIKGEIPLAIKAMEFIQKLSAMMAHEGKPLEWTTPIGLPWSNRYHDPVTERVNLWMHDHGVRRPFRPVVADGYKKTINKNHSVNGSAPNFVHACDAAHLLRTVNAARAEGITQFALVHDSFGSLPSHAARFRQIIREEFVRMYEEHDVLTEVLEQAKCDLDEHNDKLSALVDMRADLTGKLNIKEVLNAEYAFAYPKLSEPDTKGEYADGKYKTEGTATEDYTERFQEEIQKVADDNFPGKKNVHLPWKETKEGDIAFIFKNPKKKPILTDSRGKPLKEGTVIRGGSKIRIAGVIAAWEKGAKRGVSLWPDAVRVIKLSEGFDANAAFGAAEDGFNADDYEPTNFGNDGEDADNDADDAEAGDDAFKLLEHHHHHH | not soluble
MGRSADSFDRALWWGASDEPALAAPPLRGTTDTDVAIVGGGFTGLVTALHLAEAGLAPLVLEARHVGFGASGRNGGQVIPGLKYDPEALLQKFGPDRGRALIDLVGGAADGVFDLIERHRIRCAPRRAGWIQAAHSERALPAVLNRARQWQERGVGVSILSRDEIAARTGTSLYHGGWHDPRAGGLNPLAYARGLGRAAIAAGAHLFEESPALSLIRKGAGWEIRTPEGLVRANRVLIATNAYGEGLLPGLAQSILPVQSMLVATAPLPEDLRARLMPGGVVLSETRKLAFYMRQSDDGRLVLGGRGAVGPMEDGRLMAALEAGLARIFPEAARFGIAQRWSGQLALTLDGLPHLHAPEPGLQVLLGYNGRGIALATALGRMVANHLASGEEPVFPVTPIRPLAWHRLREPVMNAGIRWYWLKDRMGFASLEHHHHHH | not soluble
MPILEEPHESRTITLPPRPARLGGRCDVLVVGGGPAGFAAAVGAADAGADTVLVERYGFLGGNATAALVMPLMSFHNEHKQAAFTEAGDTSRLLPTDHGEGEPVVAGVLWQLLDRLTGRGGCLPPSPKTGYTVPFDPELFKFCLLEMADESGVRMLFHSFASGALPLDDGPGWRVVFETKSGPVVIDAGVVVDGTGDGDVAAACGAPYEVGRPEDGLVQPMTLMFRVADFARPDFAAYVREHPDQWRGVHGLWDLIEEARKNGELRLPREDILFFATPHPHEVAVNSTRVNRVLGTSVWDLTRAEYTARHQLAEIDRFLRTRVPGFEESYVVQSGTHVGVRESRRVVGDHRLTGHDILAARTFPDVIAHGAYPVDIHNPRGSGTVLKRVPRGSFYDIPLRCLLPRDTDRLLVAGRCISGTHVAHSSYRVMPIAMATGHAAGVCAALTVRHGSGPRGLPYRLVQRELLRQGARLRTEPHLEHHHHHH | not soluble
VVPGPVHTSPREVAGPVDVLILAVKATQNDAARPWLTRLCDERTVVAVLQNGVEQVEQVQPHCPSSAVVPAIVWCSAETQPQGWVRLRGEAALVVPTGPAAEQFAGLLRGAGATVDCDPDFTTAAWRKLLVNALAGFMVLSGRRSAMFRRDDVAALSRRYVAECLAVARAEGARLDDDVVDEVVRLVRSAPQDMGTSMLADRAAHRPLEWDLRNGVIVRKARAHGLATPISDVLVPLLAAASDGPG | not soluble
MGSDKIHHHHHHMEKTLVIEHDGEKAVVWETPQIFSENDYDYEVLEKALENTGGPLKEWRKKKYQEYKEWGFPRWKRCNLDGMSLPELSFKRIDLDVDISLLEKLDFEGAHRKFVLLGDTFFTDFRVYGDGKHMMRFDGDGIENVLVVVEKEAEIYKLSSTDRFRNTVMRILVKKNASLKFFNLDFFGNFSFDNVFIVLEEGARLVLRDFKAFGYRKTGHILVKLNKSSKADMKSFFYQNGSGITDLLYLMRFEGEDAEGKLKGNGVVDGAGKIVFRGILDVKRGSKNIVAEETEHTLVLSPDARMDAIPSLWVDENDVTASHSASSSSLDEDELFYLMTRGVDEIESKKLIVRGVFNELLDELDESVKGEVENVVNRIV | not soluble
TSMIIHRDLEVAIRQDNIIPYFQPIVNAKSGEIIGFEALARWPHPTLGIISPLIFIPLAEQGKLIVELGESILNQSCDFIGKLNTKRHSQGLPPLTVHVNLSAQHFYHSRLISFLQSMIEEHNISAGHLVLEITESMLMGGETESIHCINEIKQLGVQLALDDFGTGYASFSSVCNFPLDIVKLDKSYVDEIETNDRAKTLVRNIANMSQELGLTIVAEGVETASQVRKLKVWNIDELQGFYFYKPMTREDAFAQFSGLPHC | not soluble
MSLRKEPSSQLELFLNILHGFSTTITSETLNKISEKFLDMVNGSINPSLSLKNKITIVFQDCLTNGFQSANLSKLLENLNSIDVVEVLSEFIHCDLKVGAFSVIDLLDTDIFLSVLSMESLKQTLSIMDKFIIDILLVFTIVDINYEVFAEKLSKLITLHFNISLWLQVYQIDKLLAISETFGHVTKYNYGAQLKSYSDITDFTTLMVGFVKNSPTAEPPIFTRAFSDFILNGEDLTCAKQFLHFVAKPYHVSKDPVEELLYALSLFKCNEYDASIEIFLANDFSDELSLPKYLEVTENHVWYNLLHAINTKDKPAYYYELSVLCSKASSYANALKTIKKSISLDGTRADQLIQYLDTLIVFGDYKEVLDVLRLEQKVLDISLREKYYYTLLSDQKYSEMFTATLLQECYNANISNGSILLCVSDYKIIASILSSQVSLTDWNSYKKLFSFRILNQHERKACEELYDYVLFGSNDEVKEKCLLLISNVLKTFSDAKDQWFISYPGQIIHLHELNDKMNKCSKEGHHHHHH | not soluble
MIIERLVGNLRDLNPLDFSVDHVDLEWFETRKKIARFKTRQGKDIAIRLKDAPKLGLSQGDILFKEEKEIIAVNILDSEVIHIQAKSVAEVAKICYEIGNRHAALYYGESQFEFKTPFEKPTLALLEKLGVQNRVLSSKLDSKERLTVSMPHSEPNFKVSLASDFKVVVK | not soluble
MTPEAPYASLTEIEHLVQSVCKSYRETCQLRLEDLLRQRSNIFSREEVTGYQRKSMWEMWERCAHHLTEAIQYVVEFAKRLSGFMELCQNDQIVLLKAGAMEVVLVRMCRAYNADNRTVFFEGKYGGMELFRALGCSELISSIFDFSHSLSALHFSEDEIALYTALVLINAHRPGLQEKRKVEQLQYNLELAFHHHLCKTHRQSILAKLPPKGKLRSLCSQHVERLQIFQHLHPIVVQAAFPPLYKELFST | soluble
